Like-named read-outs stand apart in the source and are kept apart here.
What was measured:
[1] = molecular target: T1, human PVRIG expressed on cells (human, UniProt Q6DKI7 1-326); experiment: cell-based or functional assay
T1 sequence (looked up): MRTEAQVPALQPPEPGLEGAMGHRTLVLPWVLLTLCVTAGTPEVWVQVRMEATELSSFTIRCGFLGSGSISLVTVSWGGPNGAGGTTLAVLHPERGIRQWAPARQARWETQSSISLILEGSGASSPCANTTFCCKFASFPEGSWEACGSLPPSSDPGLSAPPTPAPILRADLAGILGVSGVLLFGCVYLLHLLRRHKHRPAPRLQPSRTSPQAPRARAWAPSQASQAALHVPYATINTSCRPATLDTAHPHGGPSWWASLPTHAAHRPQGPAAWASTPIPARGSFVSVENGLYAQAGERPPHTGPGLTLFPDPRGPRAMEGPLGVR

[2] = molecular target: T1, human PVRIG expressed on cells; experiment: cell-based or functional assay; remark: listed apart in the source

B1: Tab5 (antibody, V domains shown)
VH: EVQLVESGGGVVKPGGSLRLSCAASGFTFGTSSMNWVRQAPGKGLEWVAVISFDGTEIHYADSVKGRFTISRDNSKSTVFLQMNSLRPDDTALYYCAKGSGNIYFYSGMDVWGQGTTVTVSS
VL: DIQMTQSPSTLSASVGDRVTITCRAGQSISGWLAWFQQKPGKAPNLLIYETSTLESGVPSRFSGSGSGTEYTLTISSLQPDDFATYYCQQYYSYPLTFGQGTKVEIKR
- PVRIG reporter gene cell activity EC50 [1]: 1.38 nM
- PVRIG reporter gene cell activity EC50 [2]: 0.74 nM

— EP4681729A1 (Shanghai Mabgen Biotech Ltd., dated 2026)
